Data set [1] has as its target eukaryotic translation initiation factor 4E (eIF4E), full length human (human) (UniProt P06730). Put plainly: Kd estimated from FTS thermal shift.
The target is the same in data set [2]. Put plainly: fluorescence-based thermal shift assay (FTS), Sypro Red, 10 µM eIF4E, 100 µM peptide.
Data set [3] concerns the target T1, eukaryotic translation initiation factor 4E (eIF4E), full length human (human, UniProt P06730 2-217).
T1 construct: mature; read as P06730; also called eIF4E protein
Put plainly: ITC. (In general: In ITC the heat of successive injections is recorded.)

Data set [4] addresses T1, eukaryotic translation initiation …. In words: ITC, peptide titrated into eIF4E, 20° C.
Protocol: (§1) ITC experiments were conducted in a VP-ITC Unit (MicroCal, Northampton, Mass.). […] The buffer used for dialysis of the protein was used to dilute the peptides to their final working concentration. The protein buffer solution was matched to the peptide solution by the addition of DMSO in the case of the non TAT fused peptides. The titration experiments were performed at 20° C. with an initial 2 μl injection with duration of 4 s, fooled by 28 10 μl injections with a duration of 7.1 s. The spacing between each injection was 150 s. The stirring speed during the titration was 290 rpm. Data was analyzed using Microcal Origin software by fitting to a single-site binding model. Correction for the enthalpy of ligand dilution was carried out by subtracting a linear fit from the last three data points of the titration, after the interaction had reached saturation.
The target is the same in data set [5]. Put plainly: ITC, peptide titrated into eIF4E, 20 °C, PBS, one-to-one binding model.
Protocol: as §1
Data set [6] has the same target. In words: Kd estimated from the FTS thermal shift of eIF4E (10 µM eIF4E, 100 µM peptide).
Protocol: A fluorescence based thermal shift assay was used to screen and rank the rationally designed eIF4E binding derivative peptides. The fluorescent dye Sypro Red was used to monitor thermal denaturation of eIF4E. Binding of the dye molecule to eIF4E, as it unfolds due to thermal denaturation, results in a sharp increase in the fluorescence intensity. The midpoint of this transition is termed the Tₘ. The thermal shift assay was conducted in the iCycler Real Time Detection System (Bio-Rad, Hercules, Calif.).
The target is the same in data set [7]. Put plainly: fluorescence-based thermal shift assay (FTS), Sypro Red, 10 µM eIF4E, 100 µM peptide.
Protocol: The fluorescent dye Sypro Red was used to monitor thermal denaturation of eIF4E. Binding of the dye molecule to eIF4E, as it unfolds due to thermal denaturation, results in a sharp increase in the fluorescence intensity. The midpoint of this transition is termed the Tₘ. The thermal shift assay was conducted in the iCycler Real Time Detection System (Bio-Rad, Hercules, Calif.). The system contains a heating/cooling device for accurate temperature control and a charge-coupled device (CCD) detector for simultaneous imaging of the fluorescence changes in the wells of the microplate. […] The final protein concentration was 10 μM. Protein samples were incubated with derivative peptides at a concentration of a 100 μM. The plate was heated from 20 to 90° C. with a heating rate of 1° C./min.
For data set [8] the target is unchanged. In words: ITC, peptide titrated into eIF4E, 20 °C, PBS, one-to-one binding model; entropy calculated. Details: unit not given here.
Data set [9] has the same target. Put plainly: fluorescence-based thermal shift assay (FTS), Sypro Red, 10 µM eIF4E, 200 µM peptide (*).
Protocol: A fluorescence based thermal shift assay was used to screen and rank the rationally designed eIF4E binding derivative peptides. The fluorescent dye Sypro Red was used to monitor thermal denaturation of eIF4E. Binding of the dye molecule to eIF4E, as it unfolds due to thermal denaturation, results in a sharp increase in the fluorescence intensity. The midpoint of this transition is termed the Tₘ. The thermal shift assay was conducted in the iCycler Real Time Detection System (Bio-Rad, Hercules, Calif.). The system contains a heating/cooling device for accurate temperature control and a charge-coupled device (CCD) detector for simultaneous imaging of the fluorescence changes in the wells of the microplate.
Data set [10] shares this target. In words: ITC, apparent Kd.
Data set [11] shares this target. In words: FTS thermal shift assay.
Data set [12] has the same target. In words: ITC, peptide titrated into eIF4E, 20 °C, PBS, one-to-one binding model. Details: unit not given here.
For data set [13] the target is unchanged. Put plainly: ITC, peptide titrated into eIF4E, 20 °C, PBS, one-to-one binding model; entropy calculated.
Data set [14] shares this target. In words: ITC, apparent Kd against the template peptide.
Protocol: as §1
Data set [15] has the same target. In words: Kd estimated from the FTS thermal shift of eIF4E (10 µM eIF4E, 200 µM peptide).
For data set [16] the target is unchanged. In words: fluorescence-based thermal stability assay (FTS).

Square brackets hold non-standard residues; d marks the D form. Ends that are not written are not given here. αMeF = C[C@](N)(Cc1ccccc1)C(=O)O; Ac5c = NC1(C(=O)O)CCCC1; Aib = CC(C)(N)C(=O)O

T1 sequence (P06730 2-217): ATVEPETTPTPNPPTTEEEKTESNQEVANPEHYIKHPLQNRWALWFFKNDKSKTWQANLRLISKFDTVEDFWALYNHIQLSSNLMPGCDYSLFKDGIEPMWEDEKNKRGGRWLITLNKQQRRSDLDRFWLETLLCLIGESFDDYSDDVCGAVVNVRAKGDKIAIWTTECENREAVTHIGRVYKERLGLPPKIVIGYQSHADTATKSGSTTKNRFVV
eukaryotic translation initiation factor 4E (eIF4E), full length human (human), sequence (P06730 2-217): as above

For the molecule Tr2_AIB3_A5C peptide (YDREFLL5FQF), in data set [1], the Kd was 1.45 µM. In addition, in data set [2], the ΔT (°C) was determined as 6.6 °C.

B1: Tr2 peptide (truncated 11mer eIF4G1 peptide) (peptide)
peptide: YDREFLLGFQF
modifications: not fully specified (C-terminus)
notes: also called truncated Tr2
As for B1, in [3], the binding enthalpy is -10.9 kcal/mol. Besides, the results for the Kd in [4], in [5] and in [6] were 1.04 µM, 1.01 µM and 5.96 µM, respectively. Moreover, in data set [7], the “ΔT (°C)” value turned out to be 4.2 °C. Also, in [8], the “-TΔS” value is -2.91.

B2: 11mer (control) peptide with the conserved tyrosine mutated to alanine (peptide)
peptide: ADREFLLGFQF
modifications: not fully specified (C-terminus)
For the molecule B2, in data set [9], the binding result is recorded as “no binding (tested: 200 µM)” and the “ΔT (°C)” value was found to be 0.65 °C.

B3: Tr2_AIB3_ALA (peptide)
peptide: YDREFLLAFQF-NH2
modifications: not fully specified
Turning to B3, the Kd in data set [6] was 2.55 µM. Besides, the “ΔT (°C)” value in data set [7] came to 5.6 °C.

B4: TAT_eIF4G1_me5 peptide (YGRKKRRQRRRGTKKRYDRE*LL5FQF) (peptide)
peptide: YGRKKRRQRRRGTKKRYDRE[αMeF]LL[Ac5c]FQF
B4: the Kd in data set [10] was 0.0102 µM. Further, in data set [11], the “thermal shift in the Tm of eIF4E greater than that of the TAT_eIF4G1 peptide” value was ~0.82 ° C. The ΔH in [12] was -12.4. For the same molecule, in data set [13], the ΔS is -5.69 Cal mol-1K-1.

B5: eIF4G1_me5 peptide (KKRYDRE*LL5FQF) (peptide)
peptide: KKRYDRE[αMeF]LL[Ac5c]FQF
modifications: not fully specified (C-terminus)
notes: also called modified 14mer eIF4G1_me5 peptide; helically stabilized peptide
Take B5: in [3], the binding enthalpy was -14.4 kcal/mol and the “ΔΔG against the template peptide (eIF4G1)” value is ~1.6 kcal/mol. In addition, in [11], the “fold increase in thermal shift over the original 14-mer eIF4G1 peptide” value came out at 1.7 fold and the “thermal shift in the melting temperature of eIF4E” value was ~14 ° C. Further, in data set [4], the Kd amounted to 0.00943 µM. The “fold more potent than the template peptide (eIF4G1)” value in data set [14] is ~15.7 fold. Further, in data set [6], the Kd was 0.007 µM. Also, the “ΔT (°C)” value in data set [7] was found to be 14.6 °C. Besides, in [8], the “-TΔS” value was -3.69.

B6: Tr2_me5-1 peptide (YDRE*LL5FQF) (peptide)
peptide: YDREXLLXFQF
modifications: not fully specified; Cα-methyl-L-phenylalanine at position 628; 1-aminocyclopentanecarboxylic acid (A5C) at position 631
notes: also called truncated modified Tr2_me5-1 peptide
As to B6, the binding enthalpy in [3] is -16.1 kcal/mol. In addition, the Kd was 0.146 µM in data set [4] and 0.36 µM in data set [6]. In addition, in data set [7], the “ΔT (°C)” value is 8.8 °C. For the same molecule, the “-TΔS” value in data set [8] was -6.89.

B7: Tr2_AIB2 peptide (peptide)
peptide: YDR[Aib]FLLGFQF
modifications: not fully specified (C-terminus)
Turning to B7, in data set [7], the binding result was “no binding (tested: 100 µM)”.

B8: Tr2_AIB3_A3C (peptide)
peptide: YDREFLLXFQF
modifications: position 631 (printed '3') = 1-amino cyclopropanoic acid; C-terminal amide (-NH2)
As to B8, the Kd in data set [6] was 2.5 µM. Moreover, in data set [7], the “ΔT (°C)” value was 5.67 °C.

B9: Tr2_AIB1 peptide (peptide)
peptide: Y[Aib]REFLLGFQF
modifications: not fully specified (C-terminus)
Turning to B9, in data set [6], the Kd was 29.8 µM. The “ΔT (°C)” value in [7] is 1.32 °C.

B10: TAT_eIF4G1 peptide (peptide)
peptide: YGRKKRRQRRRGTKKRYDREFLLGFQF
notes: also called eIF4G1 TAT fused peptide
On to B10, for which the “fold lower Kd than the shorter parent peptide (eIF4G1)” value in data set [3] was ~2.7 fold. Also, the Kd in [10] was 0.0562 µM. The ΔH in [12] was -5.52. The ΔS in data set [13] is 15 Cal mol-1K-1.

B11: Tr2_AIB4 peptide (peptide)
peptide: YDREFLLGF[Aib]F
modifications: not fully specified (C-terminus)
Regarding B11, the Kd in data set [6] was 25.1 µM. In addition, the “ΔT (°C)” value in data set [7] is 1.52 °C.

B12: Tr2_AIB3_A4C (peptide)
peptide: YDREFLLXFQF
modifications: position 631 (printed '4') = 1-amino cyclobutanoic acid; C-terminal amide (-NH2)
In the case of B12, the Kd in data set [6] was 2.35 µM. In addition, the “ΔT (°C)” value in [7] is 5.8 °C.

B13: Tr3 (peptide)
peptide: YDREFLLGFQ-NH2
Consider B13, for which the Kd in data set [15] was 35.2 µM. For the same molecule, in data set [9], the “ΔT (°C)” value is 2.25 °C.

B14: TAT peptide (YGRKKRRQRRR) (peptide)
peptide: YGRKKRRQRRR
notes: also called TAT tag
Consider B14, for which, in data set [16], the binding result was “no binding”.

B15: Tr1 (peptide)
peptide: KKRYDREFLL-NH2
In the case of B15, the Kd in [15] was 50.2 µM. In addition, the “ΔT (°C)” value in data set [9] was found to be 1.7 °C.

B16: Tr2_AIB3 peptide (peptide)
peptide: YDREFLLXFQF
modifications: not fully specified; G631 replaced with aminoisobutyric acid (Aib)
Turning to B16, the Kd in data set [6] is 3.05 µM. In addition, the “ΔT (°C)” value in data set [7] is 5.42 °C.

B17: Tr2_ALA_A5C2 (Tr2_AIB3_A5C with R626 replaced with alanine) (peptide)
peptide: YDAEFLL[Ac5c]FQF
modifications: not fully specified (C-terminus)
In the case of B17, in data set [6], the Kd was 14.3 µM. In addition, the “ΔT (°C)” value in [7] came to 2.69 °C.

B18: Tr2_ALA_A5C7 (Tr2_AIB3_A5C with F634 replaced with alanine) (peptide)
peptide: YDREFLL[Ac5c]FQA
modifications: not fully specified (C-terminus)
In the case of B18, the Kd in [6] was 2.9 µM. The “ΔT (°C)” value in data set [7] stood at 5.48 °C.

B19: Tr2_ALA_A5C6 (Tr2_AIB3_A5C with alanine at position 633) (peptide)
peptide: YDREFLL[Ac5c]FAF
modifications: not fully specified (C-terminus)
For the molecule B19, the Kd in data set [6] was 1.37 µM. For the same molecule, the “ΔT (°C)” value in data set [7] was 6.72 °C.

B20: Tr2_ALA_A5C4 (Tr2_AIB3_A5C with F628 replaced with alanine) (peptide)
peptide: YDREALL[Ac5c]FQF
modifications: not fully specified (C-terminus)
notes: 29=625, 30=626, 31=627, 34=633)
On to B20, for which the Kd in [6] was 8.09 µM. Besides, the “ΔT (°C)” value in [7] came to 3.72 °C.

B21: Tr2_ALA_A5C1 (Tr2_AIB3_A5C with alanine at position 625) (peptide)
peptide: YAREFLL[Ac5c]FQF
modifications: not fully specified (C-terminus)
Turning to B21, the Kd in data set [6] is 0.76 µM. Also, in [7], the “ΔT (°C)” value turned out to be 5.02 °C.

B22: Tr2_ALA_A5C5 (Tr2_AIB3_A5C with F632 replaced with alanine) (peptide)
peptide: YDREFLL[Ac5c]AQF
modifications: not fully specified (C-terminus)
On to B22, for which the Kd in data set [6] is 8.4 µM. Also, in [7], the “ΔT (°C)” value came out at 3.65 °C.

B23: Tr2_ALA_A5C3 (Tr2_AIB3_A5C with alanine at position 627) (peptide)
peptide: YDRAFLL[Ac5c]FQF
modifications: not fully specified (C-terminus)
Turning to B23, the Kd in data set [6] is 1.22 µM. Besides, in data set [7], the “ΔT (°C)” value was found to be 4.22 °C.

B24: Tr2_me5_3 (peptide)
peptide: YDREFLLXFQX
modifications: position 631 (printed '5') = 1-amino cyclopentanoic acid; position 634 (printed '*') = Cα-Me-L-Phenylalanine; C-terminal amide (-NH2)
Regarding B24, in data set [6], the Kd is 2.4 µM. Further, in data set [7], the “ΔT (°C)” value is 5.8 °C.

The values above are taken from patent US20130130989A1 (AGENCY FOR SCIENCE TECHNOLOGY AND RESEARCH, published 2013).
